Experimental data taken from the supplement of paper PMC9876800.

Test system: peptide library, one residue held at a place counted from the S/T acceptor
Assay: relative phosphorylation of the sub-library (ratio to the mean residue at this position); higher = residue favoured
Conditions: human
In short: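 In 384-well plates, purified recombinant kinases (human or orthologue constructs) were incubated for 90 min under kinase-specific conditions with 50 μM biotinylated degenerate peptide sub-libraries and 50 μM ATP spiked with γ-32P-ATP. Each sub-library fixed a single residue at one position around a central Ser/Thr. Relative sub-library phosphorylation, measured by phosphorimaging and densitometry of streptavidin membrane spots, is given as a ratio to the mean residue at that position.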

Chain of PLK1, construct: Full length (P53350 whole entry, looked up): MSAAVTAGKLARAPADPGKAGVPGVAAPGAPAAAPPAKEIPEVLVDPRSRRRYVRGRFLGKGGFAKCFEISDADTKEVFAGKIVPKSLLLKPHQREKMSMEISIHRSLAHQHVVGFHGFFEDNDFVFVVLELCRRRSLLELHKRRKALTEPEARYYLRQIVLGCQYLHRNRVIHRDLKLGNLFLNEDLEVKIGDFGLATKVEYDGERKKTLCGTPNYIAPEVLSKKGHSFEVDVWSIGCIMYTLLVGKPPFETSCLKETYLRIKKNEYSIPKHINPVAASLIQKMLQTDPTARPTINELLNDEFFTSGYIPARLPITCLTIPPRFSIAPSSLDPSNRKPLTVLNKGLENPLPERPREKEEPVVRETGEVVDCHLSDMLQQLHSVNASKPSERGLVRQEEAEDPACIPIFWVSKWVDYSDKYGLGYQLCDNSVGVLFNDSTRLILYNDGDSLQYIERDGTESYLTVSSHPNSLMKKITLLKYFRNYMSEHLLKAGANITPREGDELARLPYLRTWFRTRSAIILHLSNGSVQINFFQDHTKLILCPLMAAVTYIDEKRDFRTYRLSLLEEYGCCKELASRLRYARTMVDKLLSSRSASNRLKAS

PLK1, construct: Full length (from UniProt P53350)
relative phosphorylation
Conditions | at +1 | at +2 | at +3 | at +4 | at -1 | at -2 | at -3 | at -4 | at -5
A fixed | 0.622 | 0.73 | 0.85 | 0.951 | 0.748 | 0.452 | 0.934 | 1.12 | 1.16
D fixed | 0.419 | 0.677 | 1.4 | 1.35 | 1.62 | 3.98 | 1.1 | 1.47 | 1.34
E fixed | 0.461 | 0.705 | 1.87 | 1.48 | 1.46 | 2.28 | 1.23 | 1.31 | 1.1
F fixed | 3.16 | 1.2 | 0.935 | 0.898 | 0.734 | 0.523 | 1.09 | 0.918 | 0.876
G fixed | 0.524 | 0.439 | 0.881 | 1.01 | 0.451 | 0.679 | 1.23 | 1.09 | 1.21
H fixed | 0.809 | 1.28 | 1.13 | 1.01 | 1.03 | 0.861 | 1.47 | 0.981 | 1.1
I fixed | 1.28 | 1.37 | 1.05 | 0.769 | 0.976 | 0.402 | 0.66 | 0.816 | 0.757
K fixed | 0.593 | 0.567 | 0.679 | 0.782 | 1.04 | 0.495 | 0.689 | 0.942 | 1.02
L fixed | 1.36 | 1.7 | 1.02 | 0.795 | 0.964 | 0.53 | 1.33 | 0.979 | 0.807
M fixed | 1.72 | 1.4 | 0.972 | 0.932 | 1.2 | 0.505 | 1.38 | 0.95 | 0.802
N fixed | 0.606 | 1.14 | 0.82 | 1.1 | 1.24 | 2.86 | 1.08 | 1 | 1.22
P fixed | 0.246 | 0.421 | 0.579 | 1.41 | 0.42 | 0.33 | 0.785 | 0.836 | 0.936
Q fixed | 0.856 | 0.847 | 0.982 | 0.945 | 1.17 | 0.747 | 0.857 | 0.849 | 0.842
R fixed | 0.908 | 0.959 | 0.76 | 0.813 | 1.4 | 0.641 | 0.998 | 0.961 | 1.02
V fixed | 1.06 | 1.14 | 1.02 | 0.701 | 1.03 | 0.373 | 0.552 | 0.791 | 0.813
W fixed | 0.971 | 1.05 | 1.05 | 1.09 | 0.563 | 0.636 | 0.898 | 1.16 | 1.06
Y fixed | 1.4 | 1.38 | 1 | 0.958 | 0.952 | 0.709 | 0.718 | 0.832 | 0.927
pThr fixed | 2.54 | 0.971 | 0.987 | 2.29 | 1.02 | 0.627 | 0.945 | 1.03 | 1.3
pTyr fixed | 1.02 | 1.47 | 1.67 | 1.8 | 1.98 | 0.802 | 1.01 | 0.88 | 1.33
